Reference: patent US20140212439A1 (Daiichi Sankyo, published 2014)
Where a chain is given by its changes, count along the chain named. Values belong to the binder of their own block, whether it stands above or below them.

Experiments:
[1] = target: human EPHA2 expressed on cells (human, UniProt P29317 24-976); test: cell-based or functional assay
bovine serum albumin = target: T1, bovine serum albumin (bovine, UniProt P02769 25-607); test: ELISA on plate-coated BSA
T1 construct: Control protein in the ELISA; also called BSA
Method: A solution of an EPHA2 extracellular region polypeptide (manufactured by R&D Systems, Inc., #3035-A2-100) or bovine serum albumin (in the description below and the figures, abbreviated to “BSA”) as a control diluted to 1 μg/ml with PBS was dispensed at 100 μl/well onto an immunoplate (manufactured by Nunc, #442404) and incubated overnight at 4° C. to thereby adsorb the protein to the plate.
The plate was incubated at room temperature for 1 hour. Then, the solution in the wells was removed, and the wells were washed twice with Diluting Buffer. Goat anti-Mouse IgG, Peroxidase Conjugated (manufactured by Millipore (Chemicon), #AP181P) diluted 1000 times with Diluting Buffer was added at 100 μl/well and incubated at room temperature for 1 hour. The solution in the wells was removed, and the wells were washed twice with Diluting Buffer. Then, a color reaction was performed with stirring by the addition of OPD Color Developing Solution at 100 μl/well. After color development, the color reaction was terminated by the addition of 1 M HCl at 100 μl/well. The absorbance at 490 nm was measured using a plate reader (FIG. 7).

T1 sequence (P02769 25-607 limits assumed): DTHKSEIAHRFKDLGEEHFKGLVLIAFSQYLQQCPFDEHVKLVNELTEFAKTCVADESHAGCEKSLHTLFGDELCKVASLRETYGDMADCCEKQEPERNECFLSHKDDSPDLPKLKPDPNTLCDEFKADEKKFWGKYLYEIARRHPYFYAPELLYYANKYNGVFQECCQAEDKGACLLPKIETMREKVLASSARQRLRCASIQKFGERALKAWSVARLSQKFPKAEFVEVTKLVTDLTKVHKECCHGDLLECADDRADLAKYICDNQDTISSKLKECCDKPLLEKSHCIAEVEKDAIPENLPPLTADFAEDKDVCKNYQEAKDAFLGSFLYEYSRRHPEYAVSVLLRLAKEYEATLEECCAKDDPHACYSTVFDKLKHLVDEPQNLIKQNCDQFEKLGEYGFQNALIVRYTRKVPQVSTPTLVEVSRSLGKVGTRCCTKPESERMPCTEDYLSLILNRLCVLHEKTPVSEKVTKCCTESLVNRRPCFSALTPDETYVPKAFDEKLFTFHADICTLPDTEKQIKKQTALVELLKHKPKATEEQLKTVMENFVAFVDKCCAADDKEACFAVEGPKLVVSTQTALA
human EPHA2 expressed on cells, sequence (P29317 24-976 limits assumed): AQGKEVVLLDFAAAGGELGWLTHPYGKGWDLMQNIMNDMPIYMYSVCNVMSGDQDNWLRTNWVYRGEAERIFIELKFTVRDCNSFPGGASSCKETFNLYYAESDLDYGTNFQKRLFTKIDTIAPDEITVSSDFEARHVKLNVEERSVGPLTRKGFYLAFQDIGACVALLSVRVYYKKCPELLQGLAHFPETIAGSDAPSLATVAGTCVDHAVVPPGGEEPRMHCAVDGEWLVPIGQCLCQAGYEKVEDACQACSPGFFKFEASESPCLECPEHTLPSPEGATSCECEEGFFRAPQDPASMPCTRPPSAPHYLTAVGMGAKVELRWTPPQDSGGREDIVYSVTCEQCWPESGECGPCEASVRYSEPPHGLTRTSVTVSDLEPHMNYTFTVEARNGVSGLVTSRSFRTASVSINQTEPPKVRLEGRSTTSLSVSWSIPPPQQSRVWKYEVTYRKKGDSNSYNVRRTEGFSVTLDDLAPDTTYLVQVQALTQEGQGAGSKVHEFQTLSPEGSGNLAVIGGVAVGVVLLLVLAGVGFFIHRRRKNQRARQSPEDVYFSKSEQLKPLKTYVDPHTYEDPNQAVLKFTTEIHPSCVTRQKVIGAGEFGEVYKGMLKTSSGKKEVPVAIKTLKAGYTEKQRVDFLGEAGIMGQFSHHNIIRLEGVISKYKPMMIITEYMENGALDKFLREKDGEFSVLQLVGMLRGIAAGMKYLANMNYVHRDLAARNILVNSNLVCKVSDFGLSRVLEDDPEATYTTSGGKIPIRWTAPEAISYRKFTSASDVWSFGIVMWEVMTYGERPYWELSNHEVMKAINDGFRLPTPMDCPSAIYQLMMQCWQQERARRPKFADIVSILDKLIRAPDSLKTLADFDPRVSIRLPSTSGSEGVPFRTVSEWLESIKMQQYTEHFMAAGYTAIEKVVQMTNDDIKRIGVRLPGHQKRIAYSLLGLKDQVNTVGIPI

EPHA2 protein level after 24 hours, EPHA2/β-actin band intensity relative to mIgG2a (100%), with cross-linking antibody [1]: 69%
EPHA2 protein level after 24 hours, EPHA2/β-actin band intensity relative to mIgG2a (100%), without cross-linking antibody [1]: 70%
binding result (bovine serum albumin): no binding (tested: up to 125 µg/ml)
B1: SH348-1 (antibody produced by hybridoma SH348-1, FERM BP-10836) (antibody, mouse IgG2a, kappa, V domains shown)
VH: QIQLVQSGPELKKPGETVKISCKASGYTFTHYSMHWVKQAPGKGLKWMGWINTYTGEPTYADDFKGRFAFSLETSASTAFLQINNLKNEDTATYFCATYYRYERDFDYWGQGTTLTVSS
VL: DVLMTQSPLSLPVSLGDQASISCRSSQSIVHSNGNTYLEWYLQKPGQSPKLLIYKVSNRFSGVPDRFSGSGSGTDFTLRISRVEAEDLGVYYCFQGSHVPYTFGGGTKLEIKR
modifications: N-terminal pyroglutamic acid
notes: Mouse monoclonal IgG2a, kappa; The ends of the cDNAs are primer-derived; also called bSH348-1 (biotinylated form)

binding result (bovine serum albumin): no binding (tested: up to 125 µg/ml)
B2: SH357-1 (antibody produced by hybridoma SH357-1, FERM BP-10837) (antibody, mouse IgG2a, kappa, V domains shown)
VH: B1 VH with T30I, H31D, A61S, F80Y, N84S, T93S
VL: B1 VL with S7T, N33S, N35I, R79K
notes: Mouse monoclonal IgG2a, kappa; also called bSH357-1 (biotinylated form)
